For assay [1], the target named is T1, NKp30 coated on the ELISA plate (Example 14) (UniProt O14931 19-135).
T1 chain: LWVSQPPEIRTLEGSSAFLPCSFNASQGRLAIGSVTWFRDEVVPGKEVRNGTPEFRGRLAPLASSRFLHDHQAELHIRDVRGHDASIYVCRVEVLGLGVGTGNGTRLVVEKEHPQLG
Briefly: ELISA. In general terms: In an ELISA, binding on a coated surface is turned into a signal by an enzyme label.

In assay [2] the target is T1, NKp30 coated on the ELISA plate …. Briefly: competition ELISA; blocking of B7-H6 binding to NKp30.

Data on two molecules can be found in US20230333112A1 (published 2023).

In general, Kd refers to a measure of binding affinity in units of concentration. Low values mean tighter binding, high ones weaker binding. What is called IC50 is the concentration that gives 50% inhibition. Low readings indicate greater potency, high ones weaker potency.

B1: B7-H6 (ligand)
chain: DLKVEMMAGGTQITPLNDNVTIFCNIFYSQPLNITSMGITWFWKSLTFDKEVKVFEFFGDHQEAFRPGAIVSPWRLKSGDASLRLPGIQLEEAGEYRCEVVVTPLKAQGTVQLEVVASPASRLLLDQVGMKENEDKYMCESSGFYPEAINITWEKQTQKFPHPIEISEDVITGPTIKNMDGTFNVTSCLKLNSSQEDPGTVYQCVVRHASLHTPLRSNFTLTAARHSLSETEKTDNFS
Regarding B1, in assay [1], the Kd was 6.56 nM.

B2: BJM1042 (bispecific anti-TRBC1/NKp30 antibody) (bispecific antibody)
heavy: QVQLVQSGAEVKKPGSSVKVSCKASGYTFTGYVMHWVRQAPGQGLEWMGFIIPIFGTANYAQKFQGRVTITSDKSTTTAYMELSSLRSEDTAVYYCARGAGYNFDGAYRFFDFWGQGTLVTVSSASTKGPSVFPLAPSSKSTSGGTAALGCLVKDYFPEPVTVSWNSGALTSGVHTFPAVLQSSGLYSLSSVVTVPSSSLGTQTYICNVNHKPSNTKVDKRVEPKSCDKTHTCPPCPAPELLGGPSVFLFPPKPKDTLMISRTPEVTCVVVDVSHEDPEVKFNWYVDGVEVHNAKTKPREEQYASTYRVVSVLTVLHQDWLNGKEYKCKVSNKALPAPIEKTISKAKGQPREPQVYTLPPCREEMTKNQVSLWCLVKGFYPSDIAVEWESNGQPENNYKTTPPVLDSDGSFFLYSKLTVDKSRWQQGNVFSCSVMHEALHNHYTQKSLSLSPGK
light: DVVMTQSPLSLPVTLGQPASISCRSSQRLVHSNGNTYLHWYQQRPGQSPRLLIYRVSNRFPGVPDRFSGSGSGTDFTLKISRVEAEDVGVYFCSQSTHVPYTFGGGTKVEIKRTVAAPSVFIFPPSDEQLKSGTASVVCLLNNFYPREAKVQWKVDNALQSGNSQESVTEQDSKDSTYSLSSTLTLSKADYEKHKVYACEVTHQGLSSPVTKSFNRGEC
chain: EIQLLESGGGLVQPGGSLRLSCAVSGFSITTTGYHWNWVRQAPGKGLEWVGYIYSSGSTSYNPSLKSRFTISRDTSKNTFYLQMNSLRAEDTAVYYCARGDWHYFDYWGQGTMVTVSSGGGGSGGGGSGGGGSGGGGSDSVTTQSPLSLPVTLGQPASISCSGEKLSDKYVHWYQQRPGQSPRMLIYENDRRPSGVPDRFSGSNSGNDATLKISRVEAEDVGVYFCQFWDSTNSAVFGGGTKVEIKDKTHTCPPCPAPELLGGPSVFLFPPKPKDTLMISRTPEVTCVVVDVSHEDPEVKFNWYVDGVEVHNAKTKPREEQYASTYRVVSVLTVLHQDWLNGKEYKCKVSNKALPAPIEKTISKAKGQPREPQVCTLPPSREEMTKNQVSLSCAVKGFYPSDIAVEWESNGQPENNYKTTPPVLDSDGSFFLVSKLTVDKSRWQQGNVFSCSVMHEALHNHYTQKSLSLSPGK
With B2, the Kd in assay [1] is 0.578 nM. The same molecule displayed an IC50 in assay [2] of 29.4 nM.
